The experiment has as its target human FGFR1c/KLB receptor complex on cells (human) (UniProt P11362). Put plainly: cell-based or functional assay.

As usually defined, the EC50 is the concentration at which the effect is half-maximal. A high value points to weaker potency.

Sequence of human FGFR1c/KLB receptor complex on cells (human) (P11362 other isoform, or with tags, fused parts or gaps limits assumed, chain 1 of 2): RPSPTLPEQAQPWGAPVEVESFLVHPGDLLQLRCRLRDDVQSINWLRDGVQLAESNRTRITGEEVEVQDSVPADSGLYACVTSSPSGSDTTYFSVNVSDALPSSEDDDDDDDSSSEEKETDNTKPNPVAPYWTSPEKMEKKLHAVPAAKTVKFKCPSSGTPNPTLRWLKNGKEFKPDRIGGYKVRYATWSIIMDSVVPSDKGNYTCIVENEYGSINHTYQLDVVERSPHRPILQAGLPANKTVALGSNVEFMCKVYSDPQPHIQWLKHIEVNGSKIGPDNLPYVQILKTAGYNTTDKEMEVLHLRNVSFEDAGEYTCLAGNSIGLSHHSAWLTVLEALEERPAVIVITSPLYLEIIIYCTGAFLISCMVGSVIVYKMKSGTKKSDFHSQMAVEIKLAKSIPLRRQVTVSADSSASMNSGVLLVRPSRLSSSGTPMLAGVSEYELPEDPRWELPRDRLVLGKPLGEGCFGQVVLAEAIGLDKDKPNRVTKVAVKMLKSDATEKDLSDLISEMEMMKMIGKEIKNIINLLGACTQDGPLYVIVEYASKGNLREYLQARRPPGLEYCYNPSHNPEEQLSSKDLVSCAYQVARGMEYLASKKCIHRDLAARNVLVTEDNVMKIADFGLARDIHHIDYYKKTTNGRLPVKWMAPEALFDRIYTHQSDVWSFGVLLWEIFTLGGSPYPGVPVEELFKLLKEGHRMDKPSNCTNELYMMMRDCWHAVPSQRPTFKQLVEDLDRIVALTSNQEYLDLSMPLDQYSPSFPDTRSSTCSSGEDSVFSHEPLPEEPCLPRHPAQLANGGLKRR
Sequence of human FGFR1c/KLB receptor complex on cells (human) (chain, as listed by the source limits assumed, chain 2 of 2): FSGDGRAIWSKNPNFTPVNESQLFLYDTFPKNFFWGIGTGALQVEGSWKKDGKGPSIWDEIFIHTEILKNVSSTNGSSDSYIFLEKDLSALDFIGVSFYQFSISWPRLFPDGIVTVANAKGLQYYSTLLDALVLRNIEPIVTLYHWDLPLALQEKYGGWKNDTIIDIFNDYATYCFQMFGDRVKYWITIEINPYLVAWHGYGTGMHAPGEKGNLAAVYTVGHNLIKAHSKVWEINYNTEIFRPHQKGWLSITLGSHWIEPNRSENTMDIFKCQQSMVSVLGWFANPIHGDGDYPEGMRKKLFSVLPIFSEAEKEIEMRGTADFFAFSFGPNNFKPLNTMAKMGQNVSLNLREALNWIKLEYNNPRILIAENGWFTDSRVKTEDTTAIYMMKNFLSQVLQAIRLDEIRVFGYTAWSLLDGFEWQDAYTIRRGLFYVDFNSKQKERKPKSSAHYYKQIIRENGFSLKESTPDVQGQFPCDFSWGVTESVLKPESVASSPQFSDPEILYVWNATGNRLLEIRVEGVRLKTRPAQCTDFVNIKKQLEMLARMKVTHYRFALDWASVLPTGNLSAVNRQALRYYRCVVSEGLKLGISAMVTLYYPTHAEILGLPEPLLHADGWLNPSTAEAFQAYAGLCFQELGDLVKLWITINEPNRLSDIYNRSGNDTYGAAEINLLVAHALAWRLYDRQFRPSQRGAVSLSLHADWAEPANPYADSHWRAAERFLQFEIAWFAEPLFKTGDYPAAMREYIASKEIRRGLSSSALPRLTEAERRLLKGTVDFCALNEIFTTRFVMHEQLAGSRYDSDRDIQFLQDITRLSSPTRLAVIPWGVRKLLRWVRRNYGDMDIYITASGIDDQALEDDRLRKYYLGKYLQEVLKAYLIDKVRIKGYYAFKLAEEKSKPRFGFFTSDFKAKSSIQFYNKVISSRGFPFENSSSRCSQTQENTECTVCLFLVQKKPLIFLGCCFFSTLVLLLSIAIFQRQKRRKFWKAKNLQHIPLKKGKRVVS

The substance “REGN1438 (6His-FGF21) (from UniProt Q9NSA1 29-209) (ligand)” had a % Act of 100%, an EC50 of 2.9 nM and a Percent Activity % of 100%.

The record behind these values is patent US20220372168A1.
